In the data set the test system is MBP-ERS WT (human). Kind of data set: EMSA. To be noted: 1 mM Mg2+; 5 ug/mL heparin (unit prefix not given); none (in vitro transcript); 25 mM Tris-HCl pH 7.5, 50 mM NaCl, 1 mM MgCl2, 1 mM DTT, 5 ug/mL heparin (prefix not given), 10 nM 32P-tRNA, room temperature 30 min; native 4-16% gel on …. In general terms: Mobility shift assays separate free from complexed probe on a gel.

Turning to human tRNAGlu(TTC), the equilibrium dissociation constant (Kd) came out at 516 nM.

The Kd is the equilibrium constant for the complex coming apart.

Source of the values: paper PMC9898101.
